Test results as given in US20250101098A1 (R P SCHERER TECHNOLOGIES, published 2025).

Legend:
[1] = biological target: T1, rat nectin-4 protein expressed on the surface of HEK 293 cells (rat, UniProt D3ZET1 31-509); assay: flow cytometry, HEK 293 cells overexpressing the target
T1 construct: whole, on cells
T1 sequence: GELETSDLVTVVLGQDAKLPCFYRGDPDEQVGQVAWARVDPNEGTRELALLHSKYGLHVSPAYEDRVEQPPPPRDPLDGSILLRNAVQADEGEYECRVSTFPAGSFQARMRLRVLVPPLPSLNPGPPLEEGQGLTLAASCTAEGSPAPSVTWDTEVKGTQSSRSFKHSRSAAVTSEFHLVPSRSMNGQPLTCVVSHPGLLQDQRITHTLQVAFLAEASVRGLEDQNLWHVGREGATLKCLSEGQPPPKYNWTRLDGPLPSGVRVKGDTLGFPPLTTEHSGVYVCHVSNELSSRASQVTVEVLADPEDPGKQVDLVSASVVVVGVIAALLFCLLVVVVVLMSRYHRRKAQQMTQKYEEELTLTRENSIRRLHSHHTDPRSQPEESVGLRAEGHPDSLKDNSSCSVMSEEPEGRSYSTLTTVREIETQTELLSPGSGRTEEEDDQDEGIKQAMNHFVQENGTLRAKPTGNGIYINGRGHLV
Experimental: (§1) Human embryonic kidney (HEK) 293 cells overexpressing human, cynomolgus monkey, rat, or mouse nectin-4 protein were produced. Cells were lifted with Versene to preserve cell surface proteins and were resuspended at 10e6/mL in PBS+2% FBS. 100 μl was added to a flow tube to test […]. Primary antibodies were diluted to […] and 10 μL was added for a total of 1 μg/test. Primary antibodies (or ADCs) were incubated with cells for 1 h on ice. Then, cells were washed 1× in 2 mL PBS+2% FBS and secondary antibody was added for detection. AF488-conjugated anti-human antibody from Jackson Immunoresearch, diluted according to the manufacturer's instructions+50% glycerol, was used at 1 μL/test-diluted to ⅕ the concentration in PBS+2% FBS and 5 μL were added per tube. The secondary reagent was incubated with the cells for 30 min, then cells were washed 2× in PBS+2% FBS and analyzed by flow cytometry on a BD FacsCanto instrument equipped with FACSDiva software.
(§2) Lead clones were tested for binding to human, cynomolgus monkey, rat, or mouse nectin-4 protein expressed on the surface of HEK 293 cells. Enfortumab was included as a positive control and an anti-FITC reactive antibody was included as a negative control.

[2] = biological target: T2, cynomolgus monkey nectin-4 protein expressed on the surface of HEK 293 cells (cynomolgus monkey, UniProt A0A2K5WES1 32-510); assay: as above
T2 construct: whole, on cells
T2 sequence: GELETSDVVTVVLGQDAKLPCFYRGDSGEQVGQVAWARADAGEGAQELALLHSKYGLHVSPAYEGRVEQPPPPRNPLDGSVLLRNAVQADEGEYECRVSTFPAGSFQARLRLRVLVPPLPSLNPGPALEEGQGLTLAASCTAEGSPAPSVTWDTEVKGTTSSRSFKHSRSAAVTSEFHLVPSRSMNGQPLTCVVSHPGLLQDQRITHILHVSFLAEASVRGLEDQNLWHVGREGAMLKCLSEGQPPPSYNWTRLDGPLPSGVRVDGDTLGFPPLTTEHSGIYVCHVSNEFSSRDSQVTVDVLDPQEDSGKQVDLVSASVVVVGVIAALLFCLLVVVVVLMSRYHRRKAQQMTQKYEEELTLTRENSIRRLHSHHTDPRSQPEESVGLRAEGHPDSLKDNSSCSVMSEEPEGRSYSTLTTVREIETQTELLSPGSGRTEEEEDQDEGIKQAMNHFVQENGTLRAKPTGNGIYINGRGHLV
Experimental: as §1, §2

[3] = biological target: T3, human nectin-4 protein expressed on the surface of cells (human, UniProt Q96NY8 32-510); assay: as above
Experimental: as §1, §2

[4] = biological target: T4, mouse nectin-4 protein expressed on the surface of HEK 293 cells (mouse, UniProt Q8R007 31-508); assay: as above
T4 construct: whole, on cells
T4 sequence (looked up): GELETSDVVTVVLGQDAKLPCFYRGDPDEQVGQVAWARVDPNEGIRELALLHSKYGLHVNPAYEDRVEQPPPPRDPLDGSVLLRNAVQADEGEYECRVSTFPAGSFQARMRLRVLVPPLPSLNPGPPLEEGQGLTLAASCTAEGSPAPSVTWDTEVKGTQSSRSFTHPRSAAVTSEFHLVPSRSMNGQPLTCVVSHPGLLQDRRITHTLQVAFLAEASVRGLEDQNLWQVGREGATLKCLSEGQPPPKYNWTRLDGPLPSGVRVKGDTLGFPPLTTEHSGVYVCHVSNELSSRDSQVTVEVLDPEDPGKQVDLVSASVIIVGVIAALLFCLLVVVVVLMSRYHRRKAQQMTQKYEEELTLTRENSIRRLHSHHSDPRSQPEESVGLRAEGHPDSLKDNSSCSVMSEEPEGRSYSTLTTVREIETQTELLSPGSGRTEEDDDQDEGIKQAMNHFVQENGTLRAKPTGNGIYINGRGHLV
Experimental: as §1, §2

[5] = biological target: T3, human nectin-4 protein expressed on the …; assay: cell-based or functional assay
[6] = biological target: T5, human nectin-4 protein expressed on the surface of cells (human, UniProt Q96NY8 32-510); assay: cell-based or functional assay; remark: listed apart in the source
T5 sequence: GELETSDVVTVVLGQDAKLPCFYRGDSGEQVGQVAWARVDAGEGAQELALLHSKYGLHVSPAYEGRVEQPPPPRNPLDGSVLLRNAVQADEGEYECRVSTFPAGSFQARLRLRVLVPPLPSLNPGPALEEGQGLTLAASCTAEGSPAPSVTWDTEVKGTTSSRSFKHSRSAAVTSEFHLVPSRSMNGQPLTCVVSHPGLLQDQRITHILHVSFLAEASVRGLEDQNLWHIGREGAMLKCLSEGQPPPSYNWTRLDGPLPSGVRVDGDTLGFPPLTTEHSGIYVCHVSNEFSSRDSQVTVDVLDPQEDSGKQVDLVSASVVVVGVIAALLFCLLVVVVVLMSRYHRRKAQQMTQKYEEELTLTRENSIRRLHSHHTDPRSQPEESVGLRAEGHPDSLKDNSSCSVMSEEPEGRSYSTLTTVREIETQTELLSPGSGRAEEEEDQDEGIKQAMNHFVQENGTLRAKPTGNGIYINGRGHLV

[7] = biological target: T5, human nectin-4 protein expressed on the …; assay: flow cytometry, HEK 293 cells overexpressing the target
Experimental: as §1, §2

[8] = biological target: T6, recombinant human Nectin-4-His protein (human, UniProt Q96NY8 32-349); assay: ELISA, recombinant antibody on coated antigen
T6 construct: Rescreening antigen and bought ELISA antigen are treated as one molecule; also called human Nectin-4-His tagged; Ag1; not shown: His tag
T6 sequence: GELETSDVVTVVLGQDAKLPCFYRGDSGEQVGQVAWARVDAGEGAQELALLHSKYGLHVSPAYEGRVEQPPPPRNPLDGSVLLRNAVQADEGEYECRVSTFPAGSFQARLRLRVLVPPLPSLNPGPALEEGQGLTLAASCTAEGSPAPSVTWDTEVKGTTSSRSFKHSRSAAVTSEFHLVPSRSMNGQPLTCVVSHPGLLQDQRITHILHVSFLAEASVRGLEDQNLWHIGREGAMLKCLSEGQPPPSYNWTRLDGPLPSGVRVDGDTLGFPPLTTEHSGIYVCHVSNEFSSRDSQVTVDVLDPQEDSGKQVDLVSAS

[9] = biological target: T6, recombinant human Nectin-4-His protein; assay: ELISA, coated antigen
[10] = biological target: T5, human nectin-4 protein expressed on the …; assay: cell-based or functional assay; remark: listed apart in the source

B1: Enfortumab (antibody, V domains shown)
VH: EVQLVESGGGLVQPGGSLRLSCAASGFTFSSYNMNWVRQAPGKGLEWVSYISSSSSTIYYADSVKGRFTISRDNAKNSLSLQMNSLRDEDTAVYYCARAYYYGMDVWGQGTTVTVSS
VL: DIQMTQSPSSVSASVGDRVTITCRASQGISGWLAWYQQKPGKAPKFLIYAASTLQSGVPSRFSGSGSGTDFTLTISSLQPEDFATYYCQQANSFPPTFGGGTKVEIKR
- Flow data [1]: 45500
- Flow data [2]: 20000
- Flow data [3]: 17100
- Flow data [4]: 3220
- IC50, in vitro potency, HEK Cells + Nectin-4 [5]: 0.685 nM

B2: Nectin-4 5D9H/5D9L (recombinant chimeric antibody) (antibody, V domains shown)
VH: QVQLKQSGPGLVQPSQSLSITCTVSGFSLTNYGVHWVRQSPGKGLEWLGVIWSGGSTDYNAAFVSRLSISRDNSKSQVFFKMNSLQADDTAIYYCARSGKWYYFDYWGQGTTLTVSS
VL: DIQMTQSPASLSVSVGETVTITCRASENIYSNLAWYQQKQGKSPQLLVYAATNLADGVPSRFSGSGSGTQYSLKINSLQSEDFGSYYCQHFWGTPTFGGGTKLEIK
notes: also called Nectin-4 5D9 chimeric mAb
- Cell kill IC50, HekNectin4 [6]: 0.207 nM
- Cell kill IC50, MDA-MB468 [6]: 1.31 nM
- Cell kill IC50, SKBR3 [6]: 8.47 nM
- Flow data [1]: 2140
- Flow data [2]: 12600
- Flow data [7]: 11200
- Flow data [4]: 189
- EC50 [8]: 0.192 nM
- EC50 [9]: 0.191 nM
- IC50, in vitro potency, HEK Cells + Nectin-4 [10]: 0.446 nM

B3: Nectin-4 Hybridoma 6C8H/6C8L (recombinant chimeric antibody) (antibody, V domains shown)
VH: QVQLKQSGPGLVQPSQSLSITCTVSGFSLSTYGVHWVRQSPGKGLEWLGVIWSGGSTDYNAAFISRLTISKDNSKSQIFFKMNSLQADDTAIYYCARMMSWYFDVWGTGTTVTVSS
VL: DIVMTQSQKFMSTSVGDRVSVTCKASQNVVTNVAWYQQKPGQSPKALIYSASYRYSGVPDRFTGSGSGTDFTLTISNVQSEDLAEYFCQQYNSYPLTFGAGTKLELK
- Flow data [1]: 8920
- Flow data [2]: 11400
- Flow data [7]: 10200
- Flow data [4]: 194
- EC50 [8]: 0.239 nM
- IC50, in vitro potency, HEK Cells + Nectin-4 [10]: 0.573 nM

B4: Nectin-4 7 E8H/7 E8L (recombinant chimeric antibody) (antibody, V domains shown)
VH: QVQLKQSGPGLVQPSQSLSITCTVSGFSLATYGVHWVRQSPGKGLEWLGVIWSGGSTDYNAAFISRLSISKDNSKSQVFFKMNSLQADDTAIYYCARNSHWYFDVWGTGTTVTVSS
VL: DIVMTQSQKFMSTSVGDRVSVTCKASQNVVTNVAWYQQKPGQSPKALIYSASYRYSGVPDRFTGSGSGTDFTLTISHVQSEDLAEYFCHQYNNYPYTFGGGTKLEIK
- Flow data [1]: 5970
- Flow data [2]: 10400
- Flow data [7]: 9200
- Flow data [4]: 279
- EC50 [8]: 0.361 nM
- IC50, in vitro potency, HEK Cells + Nectin-4 [10]: 0.89 nM

B5: Nectin-4 3C12H/3C12L (recombinant chimeric antibody) (antibody, V domains shown)
VH: QVQLKQSGPGLVQPSQSLSITCTVSGFSLTTYGVHWVRQSPGKGLEWLGVIWSGGNTDYNAAFISRLSISKDNSKSQVFFKMNSLQADDTAIYYCARMTHWYFDVWGTGTTVTVSS
VL: DIVMTQSQKFMSTTVGDRVSITCKASQNVVTAVAWYQQKPGQSPKLLIYSASNRYTGVPDRFTGSGSGTDFTLTISYMQSEDLADYFCQQYSSYPLTFGAGTKLELK
- Flow data [1]: 5060
- Flow data [2]: 10600
- Flow data [7]: 8370
- Flow data [4]: 328
- EC50 [8]: 0.282 nM
- IC50, in vitro potency, HEK Cells + Nectin-4 [10]: 0.919 nM

B6: Nectin-4 12E11H/12E11L (recombinant chimeric antibody) (antibody, V domains shown)
VH: QVQLKQSGPGLVQPSQSLSITCTVSGFSLTTYGVHWVRQSPGKGLEWLGVIWSGGSTDCNGAFISRLSIIKDNSKSQVFFKMNSLQADDTAIYYCARMTHWYFDVWGTGTTVTVSS
VL: DIVMTQSQKFMSTTVGDRVSITCKASQNVNTAVAWYQQKPGQSPKLLIYSASYRYTGVPDRFTGSGSGTDFTLTISNMQSEDLADYFCQQYSNYPLTFGAGTKLELK
notes: also called parental 12E11 clone
- Flow data [1]: 1900
- Flow data [2]: 10400
- Flow data [7]: 8620
- Flow data [4]: 230
- EC50 [8]: 0.252 nM
- IC50, in vitro potency, HEK Cells + Nectin-4 [10]: 0.987 nM
